Article PMC7846482 (The Journal of Biological Chemistry, 2021)

Tests used:
Conditions in all cases: both partners purified
[1] = molecular target: T1, SARS-CoV-2 spike receptor-binding domain (RBD) glycoprotein from the mammalian expression system (SARS-CoV-2 Wuhan-Hu-1, UniProt P0DTC2); test: co-IP
[2] = molecular target: T1, SARS-CoV-2 spike receptor-binding …; test: western blotting
[3] = molecular target: T1, SARS-CoV-2 spike receptor-binding …; test: ELISA

Row | Binder | binding result [1] | binding result [2] | also measured
1 | mouse anti-SARS-CoV-2 spike monoclonal antibody clone S3D8 (antibody, V domains shown) VH: QVQLQQSGAELVKPGASVKLSCKASGYTFTSYYMYWMKQRPGQGLEWIGEINPSNGGTNFNEKFKSKATLTVDKSSSTAYMQLSSLTSEDSAVYYCTIFITRDAMDYWGQGTSVTVSS VL: QIVLTQSPAIMSASPGEKVTLTCSASSSVSSSYLFWYQQKPGSSPKLWIYTTSNLASGVPARFSGSGSGTSYSLTISSMEAEDAASYFCHQWSSYPPTFGAGTKLELK | binds |  | 
2 | mouse anti-SARS-CoV-2 spike monoclonal antibody clone S1D7 (antibody, V domains shown) VH: QVQLQQSGAELVKPGASVKLSCKASGYTFTSYYIYWMKQRPGQGLEWIGEINPNNGGTNFNEKFKSKATLTVDKSSSTAYMQLSSLTSEDSAVYYCTRGHSDYWGQGTTLTVSS VL: DIVLTQSPASLAVSLGQRATISCRASESVEYYGTGLMQWYQQKPGQPPKLLIYAASNVESGVPARFSGSGSGTDFSLNIHPVEEDDIAMYFCQQTRKVPYTFGGGTKLEIK | binds |  | 
3 | mouse anti-SARS-CoV-2 spike monoclonal antibody clone R22 (antibody, V domains shown) VH: EVQLQQSGPELVRPGASVKISCKTSGYTFTEYIIHWVKQSHGKSLEWIGGIDPNNGDTSYNQKFKGKASLTVDKSSSTAYMELRSLTSDDSAVYYCARLDFDYWGQGTTLTVSS VL: DIVMTQSHKFMSTSVGDRVSITCKASQDVRTAVAWYQQKPGQSPKLLIYWASTRYTGVPDRFTGSGSGTDYTLTISSVQAEDLALYYCQQHDSTPLTFGAGTKLELK |  | binds | 
4 | mouse anti-SARS-CoV-2 spike monoclonal antibody clone R52 (antibody, V domains shown) VH: QIQLVQSGPELKKPGETVKISCKASGYTFTNYGMNWVKQAPGNGLRWMGWINTYTREPSYAADFKGRFAFSLETSARAAYLQINNLKNEDTATYFCARNGAMDYWGQGTSVTVSS VL: not shown |  | binds | 
5 | mouse anti-SARS-CoV-2 spike monoclonal antibody clone R31 (antibody, V domains shown) VH: QVQLQQSGAELVRPGTSVKISCKASYTFTNYWLAWVKQRPGHGLEWIGDIYPGGAYTNFNEKFKGKATLTADTSSSTAYMQLSSLTSEDSAVYFCARDGHYGYAMDYWGQGTSVTVSS VL: DIVMTQAAFSNPVTLGTSASISCRSSKSLLHSNGITYLYWYLQKPGQSPQLLIYQMSDLASGVPDRFSSSGSGTDFTLRISRVEAEDVGVYYCAQNLELPRTFGGGIKLEIK |  | binds | 
6 | mouse anti-SARS-CoV-2 spike monoclonal antibody clone R15 (antibody, V domains shown) VH: QIQLVQSGPELKKPGETVKISCKASGYTFTKYGINWVKQAPGKDLKWMGWINTYTGEPAYGDDFKGRFAFSLETSTNTAYLQINNFKNEDTATYFCARNGAMDYWGQGTSVTVSS VL: not shown |  |  | binding result [3]: binds
